The target of the assay is Rab6a (Ras-related protein Rab-6A) (Homo sapiens (Human)) (UniProt P20340). In words: cell-based or functional assay.
UniProt P20340, sequence (P20340 whole entry): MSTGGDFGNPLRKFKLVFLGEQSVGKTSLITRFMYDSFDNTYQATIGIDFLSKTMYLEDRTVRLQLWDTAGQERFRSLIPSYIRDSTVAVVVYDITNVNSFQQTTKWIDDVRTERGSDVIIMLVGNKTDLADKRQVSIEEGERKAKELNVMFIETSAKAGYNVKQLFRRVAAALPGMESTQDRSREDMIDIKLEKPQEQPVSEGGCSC

In turn, “human Rab escort protein 1 (REP1) (from UniProt P24386 1-653)” came in with a biotinylated substrate with Rab6a compared to Rab27a (in vitro prenylation, WB; untransduced 293 lysate, endogenous REP1, FIG. 9) of 2.5 fold and a strength of the WB signal for biotinylated Rab6a (FIG. 3) compared to biotinylated Rab27a (FIG. 2), AAV-REP1 transduced cells of 10 fold.
In turn, fish REP1 had a band intensity of biotinylated Rab6a (FIG. 3) compared to biotinylated Rab27a (FIG. 2), positive controls spiked with fish REP1 of 100 fold.

The record behind these values is patent publication US20190017096A1.
